Experimental data as given in patent US20200069775A1, “BRAIN OSTEOCALCIN RECEPTOR AND COGNITIVE DISORDERS” (The Trustees of Columbia University in the City of New York, priority 2017, published 2020).

Biological target: T1, Gpr158 (Mus musculus, UniProt Q8C419)
T1 sequence (Q8C419 25-1200): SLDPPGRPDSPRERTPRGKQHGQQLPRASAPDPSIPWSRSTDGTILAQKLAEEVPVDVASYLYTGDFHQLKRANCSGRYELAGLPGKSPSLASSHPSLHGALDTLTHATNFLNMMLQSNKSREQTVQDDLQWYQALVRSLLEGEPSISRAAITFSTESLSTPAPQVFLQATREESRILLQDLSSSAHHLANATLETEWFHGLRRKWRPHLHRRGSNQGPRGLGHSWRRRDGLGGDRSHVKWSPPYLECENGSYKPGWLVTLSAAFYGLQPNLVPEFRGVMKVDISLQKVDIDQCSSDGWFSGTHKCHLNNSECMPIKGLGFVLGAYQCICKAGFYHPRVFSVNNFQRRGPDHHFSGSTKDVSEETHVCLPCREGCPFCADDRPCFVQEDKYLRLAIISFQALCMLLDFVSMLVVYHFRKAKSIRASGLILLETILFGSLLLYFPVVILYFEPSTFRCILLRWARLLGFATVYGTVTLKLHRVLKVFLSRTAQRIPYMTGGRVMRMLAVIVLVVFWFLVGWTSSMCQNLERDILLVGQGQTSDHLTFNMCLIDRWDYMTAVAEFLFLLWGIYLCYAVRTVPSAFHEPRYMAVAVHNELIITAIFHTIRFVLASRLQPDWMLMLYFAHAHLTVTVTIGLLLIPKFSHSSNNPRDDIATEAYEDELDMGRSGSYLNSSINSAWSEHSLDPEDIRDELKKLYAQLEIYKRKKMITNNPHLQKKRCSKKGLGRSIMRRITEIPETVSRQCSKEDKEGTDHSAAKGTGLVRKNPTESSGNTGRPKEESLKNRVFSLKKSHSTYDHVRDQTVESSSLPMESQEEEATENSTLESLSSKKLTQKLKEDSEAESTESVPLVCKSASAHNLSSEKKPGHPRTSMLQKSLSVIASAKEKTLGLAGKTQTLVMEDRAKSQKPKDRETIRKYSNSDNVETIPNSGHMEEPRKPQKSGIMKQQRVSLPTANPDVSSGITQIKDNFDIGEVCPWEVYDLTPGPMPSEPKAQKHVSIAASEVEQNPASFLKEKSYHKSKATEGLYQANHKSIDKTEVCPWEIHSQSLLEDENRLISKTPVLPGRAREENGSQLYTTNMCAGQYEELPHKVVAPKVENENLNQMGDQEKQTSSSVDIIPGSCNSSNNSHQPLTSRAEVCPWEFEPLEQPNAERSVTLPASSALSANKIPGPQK
Assay: Bdnf expression (qPCR) in WT and Gpr158−/− hippocampal neurons
Assay type: cell-based
Parameters: visually identified pyramidal neurons in the CA3 area of the hippocampus; from tissue; host or cells: coronal hippocampal slices of 3-4 week old male WT and Gpr158-/- mice
Conditions: WT vs Gpr158−/− hippocampal neurons, 4 hours
Description: FIG. 15. Function analysis of Osteocalcin signaling through Gpr158. (Panel a) IP1 accumulation in WT and Gpr158−/− hippocampal neurons (DIV 15) treated with either vehicle or osteocalcin for 1 hour. Glutamate was used as a positive control. (Panel b) Expression (qPCR) of Th and Bdnf in the midbrain of 6 month-old Gpr158+/− and WT littermates. (Panel c) Expression (qPCR) of Bdnf in WT and Gpr158−/− hippocampal neurons (DIV 15) treated with either vehicle or osteocalcin for 4 hours. (Panel d) Osteocalcin's effect on spontaneous action potential (AP) frequency in CA3 pyramidal neurons in WT (4 of 4 cells) and Gpr158−/− mice. The bars above the recording traces indicate the application of osteocalcin. […] Number of entries and time spent (s) in the open arms were scored. […] Time spent in the lit compartment and open arms was measured. […] Total ambulation (cm) and time spent in the center of the arena (s) were measured. […] Preference index (time spent with novel object/total exploration time) was measured. […] Preference index (time spent with novel object/total exploration time) was measured. […] Percent freezing 24 hours after training was measured. […]
RNA was isolated from brain tissue using TRIZOL (Invitrogen). cDNA synthesis was performed following standard protocol, q-PCR analyses were done using specific quantitative PCR primers (sequences available upon request), and expressed relative to Gapdh levels. […]

Substance: osteocalcin: Recombinant osteocalcin bacterially produced, cleaved from the GST subunit; completely undercarboxylated at all three sites; full-length mouse osteocalcin (YLGASVPSPDPLEPTREQCELNPACDELSDQYGLKTAYKRIYGITI)
- Bdnf expression: increased Bdnf expression in WT significantly more than in Gpr158−/− hippocampal neurons
